These results are taken from article PMC10341166, “The Src-Family Kinases SRC and BLK Contribute to the CLDN6-Adhesion Signaling” (Cells, 2023).

The target in assay [1] is T1, recGST-BLK (full-length recombinant BLK, Sf9) (mouse, UniProt P16277 1-499).
T1 construct: tyrosine-protein kinase BLK, mouse, full-length; Blk-FLAG subcloned into plEx/Bac-4; also called recBLK; recBLK-FLAG; source: Sf9 insect cells, transfected, purified (GST-tagged protein purification kit)
Nature of the assay: pull-down; GST pull-down: 10 µg recGST, recBLK-FLAG or recSRC bound to Glutathione-Superflow Resin, incubated with 3 µg recCLDN6C for 1 h at room temperature; washed five times in 140 mM NaCl, 10 mM Na2HPO4, 1.8 mM KH2PO4, pH 7.5; immunoblot. The note with it: both partners purified.

Assay [2] addresses T2, recGST-SRC (full-length recombinant SRC, Sf9) (mouse, UniProt P05480 1-535).
T2 construct: proto-oncogene tyrosine-protein kinase SRC, mouse, full-length; Src-FLAG subcloned into plEx/Bac-4; also called recSRC; source: Sf9 insect cells, transfected, purified (GST-tagged protein purification kit)
The description is as above. Particulars: both partners purified.

T1 sequence (P16277 whole entry): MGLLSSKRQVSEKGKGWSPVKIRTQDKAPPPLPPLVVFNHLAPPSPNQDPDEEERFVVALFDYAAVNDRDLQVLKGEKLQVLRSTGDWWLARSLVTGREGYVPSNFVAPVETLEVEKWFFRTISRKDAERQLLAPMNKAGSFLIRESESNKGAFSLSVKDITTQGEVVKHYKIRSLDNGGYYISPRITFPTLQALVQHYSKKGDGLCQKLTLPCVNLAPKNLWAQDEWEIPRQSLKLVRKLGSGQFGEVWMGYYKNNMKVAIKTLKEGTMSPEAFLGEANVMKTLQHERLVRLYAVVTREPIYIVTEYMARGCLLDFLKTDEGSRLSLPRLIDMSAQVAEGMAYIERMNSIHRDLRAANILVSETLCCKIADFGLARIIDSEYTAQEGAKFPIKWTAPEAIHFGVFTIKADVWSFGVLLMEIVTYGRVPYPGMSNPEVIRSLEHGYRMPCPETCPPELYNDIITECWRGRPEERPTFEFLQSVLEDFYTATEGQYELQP

B1: recCLDN6C (recombinant C-terminal cytoplasmic domain of CLDN6, C185-V219) (domain or fragment, mouse, UniProt Q9Z262 185-219, looked up)
chain: CSSGGTQGPRHYMACYSTSVPHSRGPSEYPTKNYV
notes: claudin-6 (CLDN6), mouse, C-terminus C185-V219; source: recombinant, from plEx/Bac-4
In the case of B1, the binding result in assay [1] and in assay [2] was “binds” each time.
